Laboratory results reported in paper PMC12259267, “Disruption of the KLHL37–N-Myc complex restores N-Myc degradation and arrests neuroblastoma growth in mouse models” (The Journal of Clinical Investigation, 2025).

Key:
Details in all cases: both partners purified
[1] = molecular target: T1, recombinant KLHL37-His protein (UniProt O14682 1-589); assay: pull-down; in vitro co-IP: recombinant KLHL37-His incubated with GST fusion protein at RT (25°C) for 3 hours, then GST resin (preblocked with 1% BSA); IP: GST, IB: KLHL37
T1 construct: Kelch-like protein 37 (KLHL37), also known as ectodermal-neural cortex 1 (ENC1); also called rKLHL37-His; KLHL37-His (6x); source: E. coli BL21, purified (HisTrap HP)
T1 sequence (looked up): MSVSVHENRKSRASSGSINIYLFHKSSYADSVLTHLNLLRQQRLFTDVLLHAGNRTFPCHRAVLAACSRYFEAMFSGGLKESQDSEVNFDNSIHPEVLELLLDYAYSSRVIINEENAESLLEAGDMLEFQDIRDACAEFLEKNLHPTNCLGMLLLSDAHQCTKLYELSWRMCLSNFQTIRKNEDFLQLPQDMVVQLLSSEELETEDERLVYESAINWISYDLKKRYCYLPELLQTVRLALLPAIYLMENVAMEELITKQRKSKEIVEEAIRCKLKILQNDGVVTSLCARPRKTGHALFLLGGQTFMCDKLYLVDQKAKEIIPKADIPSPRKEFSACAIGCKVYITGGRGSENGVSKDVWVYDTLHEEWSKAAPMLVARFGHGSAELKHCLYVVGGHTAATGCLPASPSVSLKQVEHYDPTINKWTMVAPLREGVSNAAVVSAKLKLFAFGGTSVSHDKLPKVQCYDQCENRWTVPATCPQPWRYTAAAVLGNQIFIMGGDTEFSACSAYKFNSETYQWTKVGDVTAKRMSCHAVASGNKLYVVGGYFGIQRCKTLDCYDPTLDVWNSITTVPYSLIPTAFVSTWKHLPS

[2] = molecular target: T2, KLHL37-His recombinant protein (UniProt O14682 1-589); assay: pull-down; in vitro co-IP: recombinant KLHL37-His incubated with GST or GST–N-Myc at RT (25°C) for 3 hours, then GST resin preblocked with 1% BSA
T2 construct: Kelch-like protein 37 (KLHL37, ENC1); the methods name only KLHL37-His; also called recombinant KLHL37; KLHL37-His (6×); source: E. coli BL21, purified (HisTrap HP)
T2 sequence (looked up): T1 sequence (looked up)

[3] = molecular target: T2, KLHL37-His recombinant protein; assay: MST; GFP–N-Myc or GFP–C-Myc at 200 nM in PBS-T (0.05% Tween 20); KLHL37-His serially diluted 16 times from 27.3 nM (N-Myc) or 7 μM (C-Myc); mixed 1:1; EC50 fitted

B1: recombinant GST-N-Myc protein (natural protein, UniProt P04198 1-464, looked up)
chain: MPSCSTSTMPGMICKNPDLEFDSLQPCFYPDEDDFYFGGPDSTPPGEDIWKKFELLPTPPLSPSRGFAEHSSEPPSWVTEMLLENELWGSPAEEDAFGLGGLGGLTPNPVILQDCMWSGFSAREKLERAVSEKLQHGRGPPTAGSTAQSPGAGAASPAGRGHGGAAGAGRAGAALPAELAHPAAECVDPAVVFPFPVNKREPAPVPAAPASAPAAGPAVASGAGIAAPAGAPGVAPPRPGGRQTSGGDHKALSTSGEDTLSDSDDEDDEEEDEEEEIDVVTVEKRRSSSNTKAVTTFTITVRPKNAALGPGRAQSSELILKRCLPIHQQHNYAAPSPYVESEDAPPQKKIKSEASPRPLKSVIPPKAKSLSPRNSDSEDSERRRNHNILERQRRNDLRSSFLTLRDHVPELVKNEKAAKVVILKKATEYVHSLQAEEHQLLLEKEKLQARQQQLLKKIEHARTC
notes: N-Myc; also called rGST-N-Myc; source: SF9 insect cells (baculovirus), purified (GST TRAP HP); not shown: GST, N-terminal, kept
binding result [1]: binds

B2: GST–N-Myc recombinant protein (natural protein, UniProt P04198 1-464, looked up)
chain: B1 chain
notes: N-Myc; source: SF9 insect cells (baculovirus), purified (GST TRAP HP); not shown: GST, N-terminal, kept
binding result [2]: binds

B3: recombinant GFP–N-Myc (natural protein, UniProt P04198 1-464, looked up)
chain: B1 chain
notes: N-Myc; also called rGFP–N-Myc; source: E. coli BL21
binding result [3]: binds
